These results are taken from PMC7432914, “Corynebacterium glutamicum CrtR and Its Orthologs in Actinobacteria: Conserved Function and Application as Genetically Encoded Biosensor for Detection of Geranylgeranyl Pyrophosphate” (International Journal of Molecular Sciences, 2020).

The target in data set [1] is T1, CrtR (CrtRCg) (Corynebacterium glutamicum ATCC 13032) (UniProt Q8NSP1).
T1 sequence: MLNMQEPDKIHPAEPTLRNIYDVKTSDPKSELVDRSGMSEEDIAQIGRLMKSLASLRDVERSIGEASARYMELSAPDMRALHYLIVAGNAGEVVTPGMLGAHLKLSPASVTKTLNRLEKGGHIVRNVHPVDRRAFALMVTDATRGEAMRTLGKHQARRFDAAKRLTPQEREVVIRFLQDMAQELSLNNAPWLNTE
In words: EMSA. The settings on record: 50 mM Tris-HCl pH 7.5, 10% glycerol, 50 mM KCl, 10 mM MgCl2, 0.5 mM EDTA; 20 uL, 30-90 ng DNA, 30 min at room temperature; 78 bp cg2228 upstream fragment …. On the technique in general: A gel shift assay detects complexes by their altered migration in electrophoresis.

The subject of data set [2] is T2, CrtR ortholog (CrtRPc) (Pseudarthrobacter chlorophenolicus DSM 12829), ORF:f49de8fb.
T2 sequence: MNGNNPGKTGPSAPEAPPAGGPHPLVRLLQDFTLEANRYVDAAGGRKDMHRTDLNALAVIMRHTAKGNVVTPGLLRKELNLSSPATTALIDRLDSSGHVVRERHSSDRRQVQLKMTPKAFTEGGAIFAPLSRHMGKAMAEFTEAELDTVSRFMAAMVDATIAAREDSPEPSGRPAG
Nature of the data set: EMSA. The conditions noted are these: 50 mM Tris-HCl pH 7.5, 10% glycerol, 50 mM KCl, 10 mM MgCl2, 0.5 mM EDTA; 20 uL, 30-90 ng DNA, 30 min at room temperature; 78 bp cg2228 upstream fragment ….

Data set [3] deals with T3, CrtRPn (CrtR from P. nicotinovorans) (Paenarthrobacter nicotinovorans, UniProt A0ABT9TUN6).
T3 construct: gene J2T10_004447; full length, N-terminal His-tag (pET16b) kept, E. coli BL21(DE3), Ni-NTA; gene divergent to idi, not the mmpL-linked paralog
T3 sequence (A0ABT9TUN6 1-195): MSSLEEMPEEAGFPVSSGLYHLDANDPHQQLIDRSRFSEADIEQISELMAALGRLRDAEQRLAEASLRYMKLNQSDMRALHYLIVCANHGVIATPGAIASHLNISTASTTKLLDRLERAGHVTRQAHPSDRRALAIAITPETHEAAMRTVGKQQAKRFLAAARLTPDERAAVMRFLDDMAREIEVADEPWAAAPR
In words: EMSA, inhibition of CrtR binding to own crtR promoter DNA. The settings on record: 100-650 uM GGPP, 15 min preincubation before DNA; pH 7.5, 10 mM MgCl2, room temperature.

The target in data set [4] is T4, CrtRCc (CrtR from C. callunae) (Corynebacterium callunae, UniProt M1UIJ0).
T4 construct: gene H924_00295; full length, N-terminal His-tag (pET16b) kept, E. coli BL21(DE3), Ni-NTA
T4 sequence (M1UIJ0 1-194): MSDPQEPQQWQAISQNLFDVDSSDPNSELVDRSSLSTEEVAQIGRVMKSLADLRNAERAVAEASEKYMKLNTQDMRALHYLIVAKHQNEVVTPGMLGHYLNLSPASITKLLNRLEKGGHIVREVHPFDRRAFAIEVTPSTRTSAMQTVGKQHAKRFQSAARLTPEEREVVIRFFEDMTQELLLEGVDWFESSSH
In words: EMSA, inhibition of CrtR binding to own crtR promoter DNA and crtE promoter DNA. The conditions noted are these: 100-650 uM GGPP, 15 min preincubation before DNA; pH 7.5, 10 mM MgCl2, room temperature.

A further data set addresses T5, CrtR (CrtRCg) (Corynebacterium glutamicum ATCC 13032, UniProt Q8NSP1 1-195).
T5 sequence: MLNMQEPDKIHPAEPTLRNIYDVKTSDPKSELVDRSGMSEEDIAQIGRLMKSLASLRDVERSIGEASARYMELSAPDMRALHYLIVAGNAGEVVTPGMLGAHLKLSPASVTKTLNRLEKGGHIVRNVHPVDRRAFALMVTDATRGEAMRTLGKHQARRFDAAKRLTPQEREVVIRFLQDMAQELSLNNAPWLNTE
In words: EMSA; strong binding; 50 mM Tris-HCl pH 7.5, 10% glycerol, 50 mM KCl, 10 mM MgCl2, 0.5 mM EDTA; 20 uL, 30-90 ng DNA, 30 min at room temperature; 78 bp cg2228 upstream fragment (negative control) in every sample; GGPP preincubated 15 min. The settings on record: protein: recombinant; tags: N-terminal His-tag (pET16b), not removed; chain copies: 2; blunt.

Another data set deals with T6, CrtR ortholog (CrtRPn) (Paenarthrobacter nicotinovorans DSM 420, UniProt A0ABT9TUN6 1-195).
T6 sequence: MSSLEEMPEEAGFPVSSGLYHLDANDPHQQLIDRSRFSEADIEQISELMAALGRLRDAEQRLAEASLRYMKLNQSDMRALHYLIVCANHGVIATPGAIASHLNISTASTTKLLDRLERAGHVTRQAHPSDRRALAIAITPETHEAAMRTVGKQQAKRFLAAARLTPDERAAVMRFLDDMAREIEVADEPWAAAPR
Nature of the data set: EMSA; no GGPP; not all DNA shifted; 50 mM Tris-HCl pH 7.5, 10% glycerol, 50 mM KCl, 10 mM MgCl2, 0.5 mM EDTA; 20 uL, 30-90 ng DNA, 30 min at room temperature; 78 bp cg2228 upstream fragment (negative control) in every sample; GGPP preincubated 15 min. The settings on record: protein: recombinant; tags: N-terminal His-tag (pET16b), not removed; chain copies: 2; blunt.

Turning to “TGCCTTCCATGCGGATGGTCCACGCGGGACAAAGCGGAGTAGGATTGGTTCCACATTAGACTATCTCCATGATAGAGATAAGTGCCAGTCAAGCTTTTTCAACGGGGGCCTCCGCCGGGGGCTTCCACGGCTGAGCCAGGTAATGCCAAGGCAGCTGAAGTAATATCCCTCAGGGCCTGTGCGCAAAGACGGACGGCCCCACGAACTCCAGGAGGTGACCATGAACGGCAACAATCCGGGCA (double strand) [P. chlorophenolicus crtR-mmpl intergenic region (PcrtR)]”, the binding entry is “binds more weakly” in data set [1] and “binds” in data set [2].

For `CC(C)=CCC/C(C)=C/CC/C(C)=C/CC/C(C)=C/COP(=O)(O)OP(=O)(O)O` [GGPP], the “EMSA, inhibition of CrtR binding to own crtR promoter DNA” value in data set [3] is “GGPP inhibited the interaction between the tested CrtR proteins and their target DNA”. The “EMSA, inhibition of CrtR binding to own crtR promoter DNA and crtE promoter DNA” value in data set [4] is “GGPP inhibited the interaction between the tested CrtR proteins and their target DNA”.

B1: C. callunae crtR-mmpl intergenic region (dsDNA)
DNA 1: CGCAAGATGCCGGGAAATACGCTCTGAAGAGGGGTTTTCATGGCCTTAAACCTTTATATATGCAAATTGTTAAATTATCCAACAGTGTAAGGTATCCCATTTTCTTAAAAAAAGGGTTAATATCCATCTATGTCCGATCCGCAA
DNA 2: TTGCGGATCGGACATAGATGGATATTAACCCTTTTTTTAAGAAAATGGGATACCTTACACTGTTGGATAATTTAACAATTTGCATATATAAAGGTTTAAGGCCATGAAAACCCCTCTTCAGAGCGTATTTCCCGGCATCTTGCG
In the case of B1, in the data set with CrtR (CrtRCg), the binding result is recorded as “binds”.

B2: P. nicotinovorans crtR-idi intergenic region (dsDNA)
DNA 1: CATACTGCGCCTTCCTCCTGCAACCTGAGTCTTTACAGCAGCCCGAATATTGCTAGACAAGCTAGAAGAAAGGCTACCATGTAGGAAGTTAGGTGTAACATACTCAGCATG
DNA 2: CATGCTGAGTATGTTACACCTAACTTCCTACATGGTAGCCTTTCTTCTAGCTTGTCTAGCAATATTCGGGCTGCTGTAAAGACTCAGGTTGCAGGAGGAAGGCGCAGTATG
For B2, the binding result with CrtR (CrtRCg) and in the data set with CrtR ortholog (CrtRPn) was “binds” throughout.
